Reference: patent US20190263934A1

Legend:
[1] = molecular target: biotinylated human FcRn (hFcRn; p51 subunit residues 24-297 with C-terminal Avi-tag, β2-m residues 21-119) (human) (UniProt P55899); assay: Biacore SPR, Biotin CAPture, pH 7.4, 1000 nM antibody, steady state
[2] = molecular target: biotinylated human FcRn (hFcRn; p51 subunit residues 24-297 with C-terminal Avi-tag, β2-m residues 21-119) (human) (UniProt P55899); assay: Biacore SPR, human FcRn, pH 6.0 (column 'Affinity, pH 6.0 (nM)')
[3] = molecular target: biotinylated human FcRn (hFcRn; p51 subunit residues 24-297 with C-terminal Avi-tag, β2-m residues 21-119) (human) (UniProt P55899); assay: Biacore SPR; pH 6.0 affinity (M^-1) over pH 7.4 steady state RU
[4] = molecular target: biotinylated human FcRn (hFcRn; p51 subunit residues 24-297 with C-terminal Avi-tag, β2-m residues 21-119) (human) (UniProt P55899); assay: Biacore SPR; second ratio column (inverse of c7)
[5] = molecular target: biotinylated human FcRn (hFcRn; p51 subunit residues 24-297 with C-terminal Avi-tag, β2-m residues 21-119) (human) (UniProt P55899); assay: Biacore SPR, Biotin CAPture of biotinylated human FcRn, pH 6.0
[6] = molecular target: biotinylated human FcRn (hFcRn; p51 subunit residues 24-297 with C-terminal Avi-tag, β2-m residues 21-119) (human) (UniProt P55899); assay: Biacore SPR, pH 7.4, steady state, 1000 nM antibody
[7] = molecular target: biotinylated human FcRn (hFcRn; p51 subunit residues 24-297 with C-terminal Avi-tag, β2-m residues 21-119) (human) (UniProt P55899); assay: Biacore SPR, pH 6.0, apparent affinity
[8] = molecular target: biotinylated human FcRn (hFcRn; p51 subunit residues 24-297 with C-terminal Avi-tag, β2-m residues 21-119) (human) (UniProt P55899); assay: Biacore SPR, human FcRn, pH 7.4, steady state
[9] = molecular target: Human CD16a (FcγRIIIa residues 17-208, C-terminal HPC4 tag, valine at position 158) (human) (UniProt P08637); assay: Biacore SPR, HPC4-captured FcγRIIIa-V158, pH 7.4
Human CD16a (FcγRIIIa residues 17-208, C-terminal HPC4 tag, valine at position 158) (human), sequence (P08637 17-208 F176V): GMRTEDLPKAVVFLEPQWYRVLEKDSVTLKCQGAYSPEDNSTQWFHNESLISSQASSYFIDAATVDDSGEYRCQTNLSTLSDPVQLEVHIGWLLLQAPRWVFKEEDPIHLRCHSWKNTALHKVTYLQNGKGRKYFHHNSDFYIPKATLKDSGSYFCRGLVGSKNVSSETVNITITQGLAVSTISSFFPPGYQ

[10] = molecular target: mouse FcRn (mouse) (UniProt Q61559); assay: Biacore SPR, pH 7.4, steady state
mouse FcRn (mouse), sequence (Q61559 22-297, chain 1 of 2): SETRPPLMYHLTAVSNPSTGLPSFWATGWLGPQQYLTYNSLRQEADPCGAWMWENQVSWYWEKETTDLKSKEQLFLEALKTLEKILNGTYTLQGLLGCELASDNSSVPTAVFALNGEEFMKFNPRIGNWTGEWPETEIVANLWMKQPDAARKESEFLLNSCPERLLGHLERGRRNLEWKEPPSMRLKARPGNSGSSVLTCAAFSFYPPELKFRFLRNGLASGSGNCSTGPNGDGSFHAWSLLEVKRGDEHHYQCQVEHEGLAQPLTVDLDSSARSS
mouse FcRn (mouse), sequence (P01887 21-119, chain 2 of 2, further chain): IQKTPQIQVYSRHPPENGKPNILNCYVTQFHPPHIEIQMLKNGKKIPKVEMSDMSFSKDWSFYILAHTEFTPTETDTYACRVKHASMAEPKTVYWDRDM

[11] = molecular target: biotinylated hFcRn (human) (UniProt P55899); assay: Biacore SPR, pH 7.4, steady state
Target sequence in this assay (P55899 24-297, form in doubt, chain 1 of 2): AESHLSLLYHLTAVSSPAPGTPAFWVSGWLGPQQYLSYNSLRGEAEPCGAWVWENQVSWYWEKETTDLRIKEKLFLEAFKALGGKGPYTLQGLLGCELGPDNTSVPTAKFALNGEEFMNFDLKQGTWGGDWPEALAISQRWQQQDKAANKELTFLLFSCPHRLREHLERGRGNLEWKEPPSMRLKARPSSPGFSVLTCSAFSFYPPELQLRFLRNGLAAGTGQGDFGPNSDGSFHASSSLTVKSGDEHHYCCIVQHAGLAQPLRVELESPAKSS
Target sequence in this assay (P61769 21-119, form in doubt, chain 2 of 2, further chain): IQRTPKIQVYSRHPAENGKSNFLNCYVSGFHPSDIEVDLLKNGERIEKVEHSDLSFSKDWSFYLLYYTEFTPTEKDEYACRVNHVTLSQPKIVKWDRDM

[12] = molecular target: biotinylated cynomolgus FcRn (cynomolgus) (UniProt Q8SPV9); assay: Biacore SPR, pH 7.4, steady state
[13] = molecular target: Human CD16a (FcγRIIIa) V158 with C-terminal HPC4 tag (human) (UniProt P08637); assay: Biacore SPR, captured FcγRIIIa-V158, relative to WT of the same backbone
Human CD16a (FcγRIIIa) V158 with C-terminal HPC4 tag (human), sequence (P08637 17-208 F176V): as the sequence (P08637 17-208 F176V) above

[14] = molecular target: mouse FcRn (mouse) (UniProt Q61559); assay: Biacore SPR, pH 6.0
[15] = molecular target: biotinylated hFcRn (human) (UniProt P55899); assay: Biacore SPR, pH 6.0
Target sequence in this assay (P55899 24-297, form in doubt, chain 1 of 2): as the sequence (P55899 24-297, form in doubt, chain 1 of 2) above
Target sequence in this assay (P61769 21-119, form in doubt, chain 2 of 2, further chain): as the sequence (P61769 21-119, form in doubt, chain 2 of 2, further chain) above

[16] = molecular target: biotinylated cynomolgus FcRn (cynomolgus) (UniProt Q8SPV9); assay: Biacore SPR, pH 6.0
[17] = molecular target: Human CD16a (FcγRIIIa) V158 with C-terminal HPC4 tag (human) (UniProt P08637); assay: Biacore SPR, captured HPC4-tagged FcγRIIIa-V158, steady-state fit
[18] = molecular target: biotinylated hFcRn (human) (UniProt P55899); assay: Biacore SPR, pH 6.0, bivalent fit
Target sequence in this assay (P55899 24-297, form in doubt, chain 1 of 2): as the sequence (P55899 24-297, form in doubt, chain 1 of 2) above
Target sequence in this assay (P61769 21-119, form in doubt, chain 2 of 2, further chain): as the sequence (P61769 21-119, form in doubt, chain 2 of 2, further chain) above

[19] = molecular target: rFcRn (rat) (UniProt P13599); assay: Biacore SPR, pH 6.0, bivalent fit
Target sequence in this assay (P13599 23-298, form in doubt, chain 1 of 2): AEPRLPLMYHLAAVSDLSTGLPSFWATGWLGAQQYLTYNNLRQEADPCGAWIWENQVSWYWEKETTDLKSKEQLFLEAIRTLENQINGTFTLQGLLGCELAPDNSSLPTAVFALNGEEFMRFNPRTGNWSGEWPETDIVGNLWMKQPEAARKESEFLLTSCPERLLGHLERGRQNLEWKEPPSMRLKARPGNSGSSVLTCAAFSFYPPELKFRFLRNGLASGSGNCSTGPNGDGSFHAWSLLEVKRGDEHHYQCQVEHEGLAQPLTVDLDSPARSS
Target sequence in this assay (P07151 21-119, form in doubt, chain 2 of 2, further chain): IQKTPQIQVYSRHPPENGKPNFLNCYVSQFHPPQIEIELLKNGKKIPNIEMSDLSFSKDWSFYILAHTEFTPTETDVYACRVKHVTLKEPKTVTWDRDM

[20] = molecular target: biotinylated hFcRn (human) (UniProt P55899); assay: Biacore SPR, pH 7.4, single antibody concentration, steady state
Target sequence in this assay (P55899 24-297, form in doubt, chain 1 of 2): as the sequence (P55899 24-297, form in doubt, chain 1 of 2) above
Target sequence in this assay (P61769 21-119, form in doubt, chain 2 of 2, further chain): as the sequence (P61769 21-119, form in doubt, chain 2 of 2, further chain) above

[21] = molecular target: rFcRn (rat) (UniProt P13599); assay: as above
Target sequence in this assay (P13599 23-298, form in doubt, chain 1 of 2): as the sequence (P13599 23-298, form in doubt, chain 1 of 2) above
Target sequence in this assay (P07151 21-119, form in doubt, chain 2 of 2, further chain): as the sequence (P07151 21-119, form in doubt, chain 2 of 2, further chain) above

[22] = molecular target: biotinylated hFcRn (human) (UniProt P55899); assay: SPR Biacore, pH 7.4, 1000 nM antibody
Target sequence in this assay (P55899 24-297 limits assumed, form in doubt, chain 1 of 2): as the sequence (P55899 24-297, form in doubt, chain 1 of 2) above
Target sequence in this assay (P61769 21-119 limits assumed, form in doubt, chain 2 of 2, further chain): as the sequence (P61769 21-119, form in doubt, chain 2 of 2, further chain) above

[23] = molecular target: rFcRn (rat) (UniProt P13599); assay: SPR Biacore, pH 7.4, 1000 nM antibody
Target sequence in this assay (P13599 23-298 limits assumed, form in doubt, chain 1 of 2): as the sequence (P13599 23-298, form in doubt, chain 1 of 2) above
Target sequence in this assay (P07151 21-119 limits assumed, form in doubt, chain 2 of 2, further chain): as the sequence (P07151 21-119, form in doubt, chain 2 of 2, further chain) above

[24] = molecular target: rFcRn (rat) (UniProt P13599); assay: BLI Octet, pH 6.0, purified antibody
Target sequence in this assay (P13599 23-298 limits assumed, form in doubt, chain 1 of 2): as the sequence (P13599 23-298, form in doubt, chain 1 of 2) above
Target sequence in this assay (P07151 21-119 limits assumed, form in doubt, chain 2 of 2, further chain): as the sequence (P07151 21-119, form in doubt, chain 2 of 2, further chain) above

[25] = molecular target: biotinylated hFcRn (human) (UniProt P55899); assay: SPR Biacore, pH 6.0
Target sequence in this assay (P55899 24-297 limits assumed, form in doubt, chain 1 of 2): as the sequence (P55899 24-297, form in doubt, chain 1 of 2) above
Target sequence in this assay (P61769 21-119 limits assumed, form in doubt, chain 2 of 2, further chain): as the sequence (P61769 21-119, form in doubt, chain 2 of 2, further chain) above

[26] = molecular target: rFcRn (rat) (UniProt P13599); assay: SPR Biacore, pH 6.0
Target sequence in this assay (P13599 23-298 limits assumed, form in doubt, chain 1 of 2): as the sequence (P13599 23-298, form in doubt, chain 1 of 2) above
Target sequence in this assay (P07151 21-119 limits assumed, form in doubt, chain 2 of 2, further chain): as the sequence (P07151 21-119, form in doubt, chain 2 of 2, further chain) above

biotinylated human FcRn (hFcRn; p51 subunit residues 24-297 with C-terminal Avi-tag, β2-m residues 21-119) (human), sequence (P55899 24-297, form in doubt, chain 1 of 2): as the sequence (P55899 24-297, form in doubt, chain 1 of 2) above
biotinylated human FcRn (hFcRn; p51 subunit residues 24-297 with C-terminal Avi-tag, β2-m residues 21-119) (human), sequence (P61769 21-119, form in doubt, chain 2 of 2, further chain): as the sequence (P61769 21-119, form in doubt, chain 2 of 2, further chain) above

mAb1 YDWY variant (M252Y/T256D/T307W/N434Y) (antibody)
pH 7.4 RU [1]: 91.2 RU | Kd [2]: 5.2 nM | Ratio (pH 6.0/pH 7.4) [3]: 3.01e+06 | Ratio (pH 6.0/pH 7.4) [4]: 3.33e-07 | Kd [5]: 5.2 nM | Steady State Binding, pH 7.4 (RU) [6]: 88.5 RU | Ka [7]: 2.66e+08 M⁻¹ | Steady State RU (pH 7.4) [8]: 91.2 RU | FcγRIIIa Binding (RU) [9]: 104 RU

mAb2 DQ (T256D/T307Q) (antibody)
Steady State RU (pH 7.4) [10]: 248 RU | Steady State RU (pH 7.4) [11]: 14 RU | Steady State RU (pH 7.4) [12]: 11 RU | FcγRIIIa V158 Affinity Fold Change (fold relative to WT) [13]: 1.05 | Kd [14]: 24 nM | Kd [15]: 97 nM | Kd [16]: 110 nM

mAb1 YEWY variant (M252Y/T256E/T307W/N434Y) (antibody)
pH 7.4 RU [1]: 98.2 RU | Steady State RU (pH 7.4) [8]: 98.2 RU

mAb1 YDQF variant (M252Y/T256D/T307Q/N434F) (antibody)
pH 7.4 RU [1]: 91.7 RU | Steady State Binding, pH 7.4 (RU) [6]: 68.6 RU | Ka [7]: 1.11e+08 M⁻¹ | Steady State RU (pH 7.4) [8]: 91.7 RU | FcγRIIIa Binding (RU) [9]: 93.2 RU

mAb2 LS (M428L/N434S) (antibody)
Steady State RU (pH 7.4) [10]: 285 RU | Steady State RU (pH 7.4) [11]: 44 RU | Steady State RU (pH 7.4) [12]: 38 RU | FcγRIIIa V158 Affinity Fold Change (fold relative to WT) [13]: 1.23 | Kd [14]: 20 nM | Kd [15]: 113 nM | Kd [16]: 210 nM

mAb1 MDQN (T256D/T307Q) (antibody)
Kd [17]: 600 nM | Kd [18]: 232 nM | kon [18]: 38000 M⁻¹ s⁻¹ | Kd [19]: 9.5 nM | koff [19]: 0.0013 s⁻¹ | kon [19]: 13000 M⁻¹ s⁻¹ | Steady State RU (pH 7.4) [20]: 10.7 RU | Steady State RU (pH 7.4) [21]: 39.1 RU

mAb1 YEQN (M252Y/T256E/T307Q) (antibody)
Kd [17]: 1620 nM | Kd [18]: 218 nM | koff [18]: 0.41 s⁻¹ | kon [18]: 19000 M⁻¹ s⁻¹ | Kd [19]: 7.8 nM | koff [19]: 0.0004 s⁻¹ | kon [19]: 5000 M⁻¹ s⁻¹ | Steady State RU (pH 7.4) [20]: 15.2 RU | Steady State RU (pH 7.4) [21]: 61.8 RU

mAb1 YETN (M252Y/T256E) (antibody)
Kd [17]: 878 nM | Kd [18]: 128 nM | kon [18]: 59000 M⁻¹ s⁻¹ | Kd [19]: 8.4 nM | koff [19]: 0.0027 s⁻¹ | kon [19]: 32000 M⁻¹ s⁻¹ | Steady State RU (pH 7.4) [20]: 9.8 RU | Steady State RU (pH 7.4) [21]: 55.1 RU

mAb1 AAA (T307A/E380A/N434A) (antibody)
Kd [17]: 450 nM | Kd [18]: 1780 nM | koff [18]: 0.14 s⁻¹ | kon [18]: 84000 M⁻¹ s⁻¹ | Kd [19]: 77 nM | koff [19]: 0.0117 s⁻¹ | kon [19]: 157000 M⁻¹ s⁻¹ | Steady State RU (pH 7.4) [20]: 13.9 RU | Steady State RU (pH 7.4) [21]: 23.6 RU

mAb2 DW (T256D/T307W) (antibody)
Steady State RU (pH 7.4) [10]: 257 RU | Steady State RU (pH 7.4) [11]: 18 RU | Steady State RU (pH 7.4) [12]: 15 RU | FcγRIIIa V158 Affinity Fold Change (fold relative to WT) [13]: 1.15 | Kd [14]: 13 nM | Kd [15]: 69 nM | Kd [16]: 99 nM

mAb1 MDWY variant (T256D/T307W/N434Y) (antibody)
pH 7.4 RU [1]: 59.8 RU | Ratio (pH 6.0/pH 7.4) [3]: 1.42e+06 | Ratio (pH 7.4/pH 6.0) [4]: 7.02e-07 | Kd [5]: 18.1 nM | Steady State Binding, pH 7.4 (RU) [6]: 59 RU | Ka [7]: 8.4e+07 M⁻¹

mAb1 LS (M428L/N434S) (antibody)
Kd [17]: 369 nM | Kd [18]: 272 nM | koff [18]: 0.05 s⁻¹ | kon [18]: 193000 M⁻¹ s⁻¹ | Kd [19]: 74 nM | koff [19]: 0.0066 s⁻¹ | kon [19]: 91000 M⁻¹ s⁻¹ | Steady State RU (pH 7.4) [20]: 18.3 RU | Steady State RU (pH 7.4) [21]: 24.8 RU

mAb1 YTTY variant (M252Y/N434Y) (antibody)
pH 7.4 RU [1]: 54.4 RU | Ratio (pH 6.0/pH 7.4) [3]: 2.22e+06 | Ratio (pH 7.4 RU / pH 6.0 affinity) [4]: 4.51e-07 | Kd [5]: 22.9 nM | Steady State Binding, pH 7.4 (RU) [6]: 54.1 RU | Ka [7]: 1.2e+08 M⁻¹

mAb1 T307E (antibody)
Steady State RU [22]: 5.7 RU | Steady State RU [23]: 21.5 RU | Kd [18]: 8130 nM | koff [18]: 0.3 s⁻¹ | kon [18]: 44000 M⁻¹ s⁻¹ | Kd [19]: 141 nM | koff [19]: 0.006 s⁻¹ | kon [19]: 56000 M⁻¹ s⁻¹ | koff [24]: 0.00329 s⁻¹ | Kd [25]: 8130 nM | koff [25]: 0.298 s⁻¹ | kon [25]: 43700 M⁻¹ s⁻¹ | Kd [26]: 141 nM | koff [26]: 0.00603 s⁻¹ | kon [26]: 55500 M⁻¹ s⁻¹

YTEKF benchmark (MST-HN variant; M252Y/S254T/T256E/H433K/N434F) (antibody)
pH 7.4 RU [1]: 89.9 RU | Kd [2]: 14.8 nM | Kd [5]: 14.8 nM | Steady State RU (pH 7.4) [8]: 89.9 RU

mAb1 YEQY variant (M252Y/T256E/T307Q/N434Y) (antibody)
pH 7.4 RU [1]: 93.6 RU | Kd [2]: 4.8 nM | Kd [5]: 4.8 nM | Steady State RU (pH 7.4) [8]: 93.6 RU

mAb2 YD (M252Y/T256D) (antibody)
Steady State RU (pH 7.4) [10]: 394 RU | Steady State RU (pH 7.4) [11]: 27 RU | Steady State RU (pH 7.4) [12]: 22 RU | FcγRIIIa V158 Affinity Fold Change (fold relative to WT) [13]: 0.58 | Kd [14]: 10 nM | Kd [15]: 99 nM | Kd [16]: 120 nM

mAb1 YTE (M252Y/S254T/T256E) (antibody)
Kd [17]: 1040 nM | Kd [18]: 342 nM | koff [18]: 0.05 s⁻¹ | kon [18]: 143000 M⁻¹ s⁻¹ | Kd [19]: 18 nM | koff [19]: 0.0012 s⁻¹ | kon [19]: 65000 M⁻¹ s⁻¹ | Steady State RU (pH 7.4) [20]: 13.2 RU | Steady State RU (pH 7.4) [21]: 53.9 RU

mAb1 MDWN (T256D/T307W) (antibody)
Kd [17]: 512 nM | Kd [18]: 169 nM | kon [18]: 53000 M⁻¹ s⁻¹ | Kd [19]: 8.2 nM | koff [19]: 0.0013 s⁻¹ | kon [19]: 16000 M⁻¹ s⁻¹ | Steady State RU (pH 7.4) [20]: 12.2 RU | Steady State RU (pH 7.4) [21]: 42.1 RU
